From patent US20040053296A1 (TAKARA BIO, published 2004)

How the values were obtained:
[1] = target: T1, 94-kDa mouse neutral ceramidase from the soluble fraction of the liver, lacking the mucin box (mouse, UniProt Q9JHE3 75-756, limits assumed); assay: lectin blot with HRP-labeled PNA lectin after immunoprecipitation from mouse liver soluble fraction
T1 construct: The whole entry is named here, and the true chain is shorter at the N-terminus; also called 94-kDa CDase; enzyme in the soluble fraction of the liver
T1 sequence (Q9JHE3 75-756 limits assumed): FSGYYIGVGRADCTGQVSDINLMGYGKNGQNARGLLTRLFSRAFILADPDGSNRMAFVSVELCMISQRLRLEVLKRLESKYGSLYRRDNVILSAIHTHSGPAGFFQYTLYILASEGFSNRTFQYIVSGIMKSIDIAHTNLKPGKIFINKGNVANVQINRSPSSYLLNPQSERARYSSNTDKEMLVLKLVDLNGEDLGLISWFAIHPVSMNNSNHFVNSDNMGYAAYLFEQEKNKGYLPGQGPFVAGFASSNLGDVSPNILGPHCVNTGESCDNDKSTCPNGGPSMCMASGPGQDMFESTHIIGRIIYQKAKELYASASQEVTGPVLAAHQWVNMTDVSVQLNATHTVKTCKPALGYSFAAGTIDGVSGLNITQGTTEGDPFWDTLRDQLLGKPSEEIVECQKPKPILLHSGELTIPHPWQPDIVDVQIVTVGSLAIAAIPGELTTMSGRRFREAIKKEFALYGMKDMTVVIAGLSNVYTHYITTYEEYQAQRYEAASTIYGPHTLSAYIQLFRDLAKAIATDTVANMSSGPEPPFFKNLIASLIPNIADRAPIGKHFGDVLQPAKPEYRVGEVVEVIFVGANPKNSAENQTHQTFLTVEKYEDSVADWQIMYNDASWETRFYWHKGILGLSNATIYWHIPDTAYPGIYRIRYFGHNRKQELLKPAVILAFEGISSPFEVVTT

[2] = target: T2, mucin box-deleted mutant of rat neutral ceramidase (delta-mucin CDase), C-terminal myc tag (rat, UniProt Q91XT9 1-761); assay: lectin blot with HRP-labeled PNA lectin after immunoprecipitation from HEK293 lysate
T2 construct: Expressed in HEK293 cells, immunoprecipitated and blotted; also called Δmucin; Δmucin CDase; not shown: C-terminal Myc-His tag from vector pcDNA3.1/Myc-his(+)
T2 sequence (Q91XT9 other isoform, or with tags, fused parts or gaps mutant): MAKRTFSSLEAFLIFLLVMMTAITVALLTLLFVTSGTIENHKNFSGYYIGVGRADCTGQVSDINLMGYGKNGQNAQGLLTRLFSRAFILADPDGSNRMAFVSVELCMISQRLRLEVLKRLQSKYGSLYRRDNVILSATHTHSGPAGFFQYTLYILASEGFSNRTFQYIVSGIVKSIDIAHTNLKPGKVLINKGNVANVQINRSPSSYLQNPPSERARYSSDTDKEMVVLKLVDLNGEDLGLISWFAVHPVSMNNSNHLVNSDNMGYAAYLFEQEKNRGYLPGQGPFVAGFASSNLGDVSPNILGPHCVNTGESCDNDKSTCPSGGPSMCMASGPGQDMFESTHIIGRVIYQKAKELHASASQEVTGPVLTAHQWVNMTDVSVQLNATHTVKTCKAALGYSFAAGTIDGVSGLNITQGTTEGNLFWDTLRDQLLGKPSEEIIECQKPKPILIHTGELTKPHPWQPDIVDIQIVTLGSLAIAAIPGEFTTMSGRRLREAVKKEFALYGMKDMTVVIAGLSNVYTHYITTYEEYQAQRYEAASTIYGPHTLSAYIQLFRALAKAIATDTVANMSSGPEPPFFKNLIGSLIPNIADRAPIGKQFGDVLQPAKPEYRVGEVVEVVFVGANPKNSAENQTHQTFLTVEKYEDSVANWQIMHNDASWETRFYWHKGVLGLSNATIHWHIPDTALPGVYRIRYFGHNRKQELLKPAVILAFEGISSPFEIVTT
Protocol: CDase was immunoprecipitated from the cell lysate of HEK293 cells prepared in Example 2, in which Δmucin or wild-type CDase was expressed, by using an anti-CDase antibody. A 100-fold dilution of anti-CDase was coupled with 10 μl of protein A-agarose (trade name, manufactured by SANTA CRUZ) in 100 μl of a reaction buffer (10 mM Tris-HCl, pH 7.5, containing 150 mM NaCl, 1% (v/v) Tritonm X-100 and 0.1% (w/v) BSA) at 4° C. for 2 hours. The product obtained was washed five times with the above reaction buffer. Thereafter, this product was mixed with a CDase sample, obtained by previously heating at 100° C. for 5 minutes in SDS sample buffer [20 mM Tris-HCl, pH 7.5, containing 1% (w/v) SDS and 1% (v/v) 2-mercaptoethanol], and incubated at 4° C. for 18 hours with gentle stirring. Subsequently, the immunoprecipitate was sedimented by centrifugation, washed five times with the above reaction buffer, suspended in 20 μl of the SDS sample buffer, and heated at 100° C. for 5 minutes. The resulting product was subjected to SDS-PAGE and Western blotting as described in Example 2. The PVDF membrane was stained with an anti-Myc antibody or an HRP-labeled PNA lectin. PNA (peanut agglutinin) lectin is a lectin capable of specifically recognizing and binding to the Galβ1,3GalNAc sequence of O-glycan.

B1: HRP-labeled PNA lectin (peanut agglutinin) (other, UniProt P02872 24-259, looked up)
chain: AETVSFNFNSFSEGNPAINFQGDVTVLSNGNIQLTNLNKVNSVGRVLYAMPVRIWSSATGNVASFLTSFSFEMKDIKDYDPADGIIFFIAPEDTQIPAGSIGGGTLGVSDTKGAGHFVGVEFDTYSNSEYNDPPTDHVGIDVNSVDSVKTVPWNSVSGAVVKVTVIYDSSTKTLSVAVTNDNGDITTIAQVVDLKAKLPERVKFGFSASGSLGGRQIHLIRSWSFTSTLITTTRRS
modifications: HRP-labeled
notes: Lectin used as a blotting reagent; also called peanut lectin
- binding result [1]: no binding
- binding result [2]: no binding
